Assay results taken from patent publication US20250042994A1 (HAINAN SIMCERE ZAIMING PHARMACEUTICAL, published 2025).

Experiments:
monkey CD19 protein [1] = biological target: T1, monkey CD19 protein (monkey); experiment: ELISA on coated monkey CD19-His
T1 construct: also called monkey CD19-His protein
Method: (§1) Human CD19-his protein (purchased from ACROBiosystems, catalog number: CD9-H52H2) was diluted with PBS to a final concentration of 4 μg/mL, and then added to a 96-well ELISA plate at 100 μl/well. The plate was sealed with a plastic film and incubated overnight at 4° C., the plate was washed 2 times with PBS the next day, and then a blocking solution [PBS+2% (w/w) BSA] was added for blocking at room temperature for 2 h. The blocking solution was poured off, and 100 nM gradiently diluted CD19 chimeric antibody or control antibody was added at 50 μl/well. After incubation at 37° C. for 2 h, the plate was washed 3 times with PBS. […] TMB substrate was added at 50 μl/well, and incubated at room temperature for 10 min, and then a stop solution (1.0 N HCl) was added at 50 μl/well. The OD450 nm values were read by an ELISA microplate reader (Multimode Plate Reader, EnSight, purchased from Perkin Elmer).
(§2) In order to detect the species cross-binding activity of the chimeric antibodies, an ELISA plate was coated with commercial murine CD19 (ACROBiosystems, catalog number: 50510-M08H) and monkey CD19 (ACROBiosystems, catalog number: 90051-C08H), respectively, and the ELISA detection was performed according to the method in example 5.1.

human CD19 on Raji cells = biological target: T2, human CD19 on Raji cells (human, UniProt P15391 20-556); experiment: FACS on Raji cells
T2 construct: whole, on cells
T2 sequence (looked up): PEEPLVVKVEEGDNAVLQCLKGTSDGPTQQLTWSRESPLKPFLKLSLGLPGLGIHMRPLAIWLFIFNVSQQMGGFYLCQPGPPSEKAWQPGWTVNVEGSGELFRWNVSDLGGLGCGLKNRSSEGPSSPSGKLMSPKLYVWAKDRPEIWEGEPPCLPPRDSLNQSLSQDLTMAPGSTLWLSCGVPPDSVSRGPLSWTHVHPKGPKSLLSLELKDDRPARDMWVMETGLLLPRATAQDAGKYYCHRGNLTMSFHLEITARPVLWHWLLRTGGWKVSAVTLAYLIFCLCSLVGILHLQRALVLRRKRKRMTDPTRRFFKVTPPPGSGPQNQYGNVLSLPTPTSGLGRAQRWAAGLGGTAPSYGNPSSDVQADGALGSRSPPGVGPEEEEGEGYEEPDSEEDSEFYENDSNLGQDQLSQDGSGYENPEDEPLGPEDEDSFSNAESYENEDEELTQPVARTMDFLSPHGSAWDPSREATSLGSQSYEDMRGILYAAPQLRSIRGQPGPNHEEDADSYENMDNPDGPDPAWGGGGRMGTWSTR

[2] = biological target: T3, cynomolgus monkey CD19 on peripheral blood B cells (cynomolgus monkey (Macaca fascicularis), UniProt A0A2K5W8L9 20-557); experiment: FACS, cynomolgus PBMC, CD20+ B cells
T3 construct: whole, on cells; also called cynomolgus monkey B cells
T3 sequence: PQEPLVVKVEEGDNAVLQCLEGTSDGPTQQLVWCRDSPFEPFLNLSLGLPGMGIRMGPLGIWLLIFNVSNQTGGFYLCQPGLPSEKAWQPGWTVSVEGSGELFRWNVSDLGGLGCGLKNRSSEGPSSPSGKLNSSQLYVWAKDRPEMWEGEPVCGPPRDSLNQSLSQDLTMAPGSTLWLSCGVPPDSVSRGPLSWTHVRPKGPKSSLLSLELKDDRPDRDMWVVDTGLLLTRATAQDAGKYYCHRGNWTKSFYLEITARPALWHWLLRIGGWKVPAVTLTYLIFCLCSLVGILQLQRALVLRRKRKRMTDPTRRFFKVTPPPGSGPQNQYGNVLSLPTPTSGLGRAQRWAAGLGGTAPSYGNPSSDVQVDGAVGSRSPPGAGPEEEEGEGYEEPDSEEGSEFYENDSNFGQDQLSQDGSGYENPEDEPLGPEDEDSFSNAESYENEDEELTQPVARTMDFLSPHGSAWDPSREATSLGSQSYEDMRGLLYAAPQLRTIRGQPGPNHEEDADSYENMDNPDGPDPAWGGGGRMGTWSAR

monkey CD19 protein [3] = biological target: T1, monkey CD19 protein; experiment: ELISA, coated monkey CD19 protein
Method: as §1, §2

[4] = biological target: T4, human CD19 on CHO-K1-human CD19 cells (human, UniProt P15391 20-556); experiment: FACS on CHO-K1-human CD19 cells
T4 construct: whole, on cells; also called CHO-K1-human CD19-2C8
T4 sequence (looked up): T2 sequence (looked up)

[5] = biological target: T5, monkey CD19 on HEK293T-monkey CD19 cells (monkey); experiment: FACS on HEK293T-monkey CD19 cells
T5 construct: whole, on cells
Summary of the method: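 Antibody binding was read as MFI by flow cytometry and EC50 was taken from curve fitting. Before that, cells at 2×10⁶ cells/ml in PBS with 2% (w/w) BSA were exposed to samples for 2 h on ice and washed. Parental HEK293T cells were tested the same way.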

[6] = biological target: T3, cynomolgus monkey CD19 on peripheral …; experiment: FACS, cynomolgus monkey PBMC, 1 nM antibody, co-stained with CD20 antibody
Method: The monkey peripheral blood mononuclear cells were extracted from fresh cynomolgus monkey peripheral blood (purchased from Shanghai Medicilon Inc.) according to the instructions of Ficoll-Paque Plus (purchased from GE Healthcae, catalog number: 171440-02). After the cell suspension was centrifuged, the cells were resuspended in PBS containing 1% BSA, and then the cells were counted. […] The mixture was incubated for 1 h at room temperature. After washing the cells three times, APC-labeled secondary antibody anti-human IgG Fc (catalog number: 409306, purchased from Biolegend) was added. After incubation at room temperature in the dark for 30 minutes, the cells were washed 5 times, gently resuspended with PBS containing 1% BSA, and detected and analyzed by FACS (FACS Canto™, purchased from BD Company), in which CD20 was used as a marker of B cells to gate the CD20-positive B cell population, the proportion of the chimeric antibody-labeled positive cells was analyzed, and the proportion of the chimeric antibody positive cell population to B cell population was calculated after treatments with the chimeric antibodies at the concentrations of 100 nM, 10 nM and 1 nM, respectively.

B1: F3.124.7 (antibody, human IgG1, V domains shown)
VH: EVQLQQSGPVLVKPGASVKMSCKASGYTFTDYYMNWVKQRHGKSLEWIGISNPYNGGTSYNQKFKDKATLTVDKSSSTAYMELNSLTSEDSAVYYCAREGGTAQPTSGMDYWGQGTSVTVSS
VL: NIMMTQSPSSLAVSAGEKVTMSCKSSQSVLYSSNQKNYLAWYQQKPGQSPKLLIYWASTRESGVPDRFTGSGSGTDFTLTISSVQPEDPAVYYCHQYRSSYTFGGGTKLEIK
notes: human-murine chimeric antibody, human IgG1
Monkey CD19 protein [1]
  EC50 (read off the curve): ~0.04 nM
Human CD19 on Raji cells
  EC50: 2.46 nM
  Maximum mean fluorescence intensity: 19100
[2]
  Proportion of chimeric antibody positive cells to B cells (%) at 1 nM: 23%
  Proportion of chimeric antibody positive cells to B cells (%) at 10 nM: 65%
  Proportion of chimeric antibody positive cells to B cells (%) at 100 nM: 92%
Monkey CD19 protein [3]
  OD450 at 0.0001 nM: 0.08 OD450
  OD450 at 0.001 nM: 0.12 OD450
  OD450 at 0.01 nM: 0.41 OD450
  OD450 at 0.10 nM: 1.44 OD450
  OD450 at 1.00 nM: 1.93 OD450
  OD450 at 10 nM: 2.04 OD450
  OD450 at 100 nM: 1.93 OD450
[4]
  EC50: 1.35 nM
  Maximum mean fluorescence intensity: 47500
[5]
  EC50: 1.27 nM
  Maximum mean fluorescence intensity: 112000

B2: F4.58.6 (antibody, human IgG1, V domains shown)
VH: QVQLQQPGAELVKPGASVKLSCKASGYTFTSYWMHWVKQRPGQGLEWIGEIDPSDSYSNYNQKFKGKATLTVDKSSSTAYMQLSSLTSEDSAVYYCARSNYGSSYGYFDVWGAGTTVTVSS
VL: QIVLTQSPAIMSASPGEKVTMTCSVSSSLSYMHWYQQKPGTSPKRWIYDTSKLASGVPARFSGSGSGTSYSLTISSMEAEDAATYYCHQRSSYPTFGGGTKLEIK
notes: as for B1
[6]
  ratio of chimeric antibody-labeled positive cells to CD20 positive cells: 2%
Human CD19 on Raji cells
  EC50: 1.31 nM
  Maximum mean fluorescence intensity: 26100
[2]
  Proportion of chimeric antibody positive cells to B cells (%) at 1 nM: 1%
  Proportion of chimeric antibody positive cells to B cells (%) at 10 nM: 2%
  Proportion of chimeric antibody positive cells to B cells (%) at 100 nM: 4%
[4]
  EC50: 1.09 nM
  Maximum mean fluorescence intensity: 56700
[5]
  Maximum mean fluorescence intensity: 81
